Where two headings read alike, the source gives them in different places.
What was measured:
SspB_micro [1] = target: SspB_micro (UniProt P45206)
SspB_milli [2] = target: SspB_milli (UniProt P45206)
SspB_nano [3] = target: SspB_nano (UniProt P45206)
SspB_micro [4] = target: SspB_micro (UniProt P45206); experiment: fluorescence polarisation
SspB_milli [5] = target: SspB_milli (UniProt P45206); experiment: fluorescence polarisation
SspB_nano [6] = target: SspB_nano (UniProt P45206); experiment: fluorescence polarisation
SspB_micro [7] = target: SspB_micro (UniProt P45206); experiment: fluorescence polarisation; remark: listed apart in the source
SspB_milli [8] = target: SspB_milli (UniProt P45206); experiment: fluorescence polarisation; remark: listed apart in the source
SspB_nano [9] = target: SspB_nano (UniProt P45206); experiment: fluorescence polarisation; remark: listed apart in the source

“sLID (slow Light Inducible Dimer) (designed binder)” showed a spine/shaft ratio of GluA1-mCh-SspB fluorescence, dark (SspB_micro [1]) of 1.5, a spine/shaft ratio of GluA1-mCh-SspB fluorescence, light (SspB_micro [1]) of 1.8 and a spine/shaft ratio of GluA1-mCh-SspB fluorescence, dark (SspB_milli [2]) of 1.5. For the same substance, the spine/shaft ratio of GluA1-mCh-SspB fluorescence, light (SspB_milli [2]) was 2.4, the spine/shaft ratio of GluA1-mCh-SspB fluorescence, dark (SspB_nano [3]) was 2.8 and the spine/shaft ratio of GluA1-mCh-SspB fluorescence, light (SspB_nano [3]) was 2.9. The Kd (SspB_micro [4]) was 2.5 µM, the Kd (SspB_milli [5]) was 125 µM and the Kd (SspB_nano [6]) was 0.31 µM. For the same substance, the Kd (SspB_micro [7]) was 0.11 µM, the Kd (SspB_milli [8]) was 3 µM and the Kd (SspB_nano [9]) was 0.007 µM.
